T1: cynomolgus monkey CD40 (cell surface)
T1 chain: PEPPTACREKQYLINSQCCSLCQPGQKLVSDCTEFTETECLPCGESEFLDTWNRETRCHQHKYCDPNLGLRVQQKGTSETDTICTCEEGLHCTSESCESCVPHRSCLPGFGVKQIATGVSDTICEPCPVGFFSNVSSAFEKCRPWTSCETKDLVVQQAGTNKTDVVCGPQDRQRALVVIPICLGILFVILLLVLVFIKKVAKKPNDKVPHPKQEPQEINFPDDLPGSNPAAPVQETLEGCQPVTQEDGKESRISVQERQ

T2: rhesus monkey CD40 (cell surface) (rhesus monkey, UniProt F6SNI1 21-278)
T2 chain: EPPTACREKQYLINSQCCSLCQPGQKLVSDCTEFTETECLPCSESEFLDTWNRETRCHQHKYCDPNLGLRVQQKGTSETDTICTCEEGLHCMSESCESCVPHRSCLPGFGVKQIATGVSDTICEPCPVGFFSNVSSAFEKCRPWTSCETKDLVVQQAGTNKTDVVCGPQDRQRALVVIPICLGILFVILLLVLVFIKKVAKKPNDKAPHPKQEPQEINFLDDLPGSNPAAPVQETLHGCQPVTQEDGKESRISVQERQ

T3: human FcγR CD32b-GST fusion protein (human, UniProt P31994 43-217)
T3 chain: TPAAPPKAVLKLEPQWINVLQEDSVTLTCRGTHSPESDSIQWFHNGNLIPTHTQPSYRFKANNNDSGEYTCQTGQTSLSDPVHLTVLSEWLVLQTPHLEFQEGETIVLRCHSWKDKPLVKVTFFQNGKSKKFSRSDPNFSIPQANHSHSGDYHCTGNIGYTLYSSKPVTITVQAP

T4: human FcγR CD64-GST fusion protein (human, UniProt P12314 16-292)
T4 chain: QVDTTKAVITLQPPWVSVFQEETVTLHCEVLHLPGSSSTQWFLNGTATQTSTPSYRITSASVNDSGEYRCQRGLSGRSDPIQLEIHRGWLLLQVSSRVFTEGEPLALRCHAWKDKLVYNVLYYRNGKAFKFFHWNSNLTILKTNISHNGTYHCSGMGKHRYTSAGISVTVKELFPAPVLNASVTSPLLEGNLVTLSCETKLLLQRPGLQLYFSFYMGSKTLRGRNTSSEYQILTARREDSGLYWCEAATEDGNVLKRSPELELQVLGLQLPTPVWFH

T5: human FcγR CD32a R131-GST fusion protein (human, UniProt P12318 34-217)
T5 chain: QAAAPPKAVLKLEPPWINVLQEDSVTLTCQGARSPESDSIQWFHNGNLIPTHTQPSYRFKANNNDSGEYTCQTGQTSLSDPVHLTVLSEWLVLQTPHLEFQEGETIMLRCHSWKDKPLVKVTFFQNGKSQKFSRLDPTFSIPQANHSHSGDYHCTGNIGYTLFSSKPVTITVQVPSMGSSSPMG


Columns and labels:
[1] = biological target: T6, human CD40 (cell surface) (UniProt P25942 20-277); experiment: flow cytometry, CHO-CD40; avid
[2] = biological target: T1, cynomolgus monkey CD40 (cell surface); experiment: flow cytometry, CHO-CD40; avid
[3] = biological target: T2, rhesus monkey CD40 (cell surface); experiment: flow cytometry, CHO-CD40; avid
[4] = biological target: T6, human CD40 (cell surface); experiment: flow cytometry, B cells in whole blood; geometric mean, A647-conjugated
[5] = biological target: T1, cynomolgus monkey CD40 (cell surface); experiment: as above
[6] = biological target: T6, human CD40 (cell surface); experiment: flow cytometry, B cells in whole blood; A647-conjugated
[7] = biological target: T6, human CD40 (cell surface); experiment: flow cytometry; 4-P fit parameter C
[8] = biological target: human FcγR CD16a V158-GST fusion protein (human, UniProt P08637 17-208); experiment: ALPHAscreen competition
[9] = biological target: T3, human FcγR CD32b-GST fusion protein; experiment: ALPHAscreen competition
[10] = biological target: T4, human FcγR CD64-GST fusion protein; experiment: ALPHAscreen competition
[11] = biological target: T5, human FcγR CD32a R131-GST fusion protein; experiment: ALPHAscreen competition

Chain of human FcγR CD16a V158-GST fusion protein (P08637 17-208 F176V): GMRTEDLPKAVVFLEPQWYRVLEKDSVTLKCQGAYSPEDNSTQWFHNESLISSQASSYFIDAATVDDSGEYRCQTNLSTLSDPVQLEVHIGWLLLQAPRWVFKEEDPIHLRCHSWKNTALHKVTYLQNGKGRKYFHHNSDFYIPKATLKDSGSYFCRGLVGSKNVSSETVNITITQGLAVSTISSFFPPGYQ

| Binder | EC50 [1] | EC50 [2] | EC50 [3] | EC50 [4] | EC50 [5] | EC50 [6] | EC50 [7] | IC50 [8] | IC50 [9] | IC50 [10] | IC50 [11] |
| --- | --- | --- | --- | --- | --- | --- | --- | --- | --- | --- | --- |
| Agly hAKH3 IgG4P/IgG1 (antibody, V domains shown) VH: EVQLVQSGAEVKKPGASVKVSCKASGYTFTTFPIEWVRQAPGQGLEWMGNFHPYNDDTKYNEKFKGRVTLTADKSTSTAYMELSRLRSEDTAVYYCARRGKLPFDSWGQGTTVTVSS VL: DIQMTQSPSSLSASVGDRVTISCRASQDISNYLNWYQQKPGKVPKLLIYFTSRLRSGVPSRFSGSGSGTDYTLTISSLQPEDVATYYCQQDRKLPWTFGQGTKLEIK | 0.0895 µg/mL | 0.131 µg/mL | 0.249 µg/mL | 0.0626 µg/mL | 0.109 µg/mL | 0.0777 µg/mL | 0.0804 µg/mL |  |  |  |  |
| Exemplary Anti-CD40 Antibody 1 (antibody, Alexa647 conjugate in some whole-blood assays; N-linked glycan on the heavy chain; neither is carried by the letters.) heavy: not shown light: DIQMTQSPSSLSASVGDRVTISCRASQDISNYLNWYQQKPGKVPKLLIYFTSRLRSGVPSRFSGSGSGTDYTLTISSLQPEDVATYYCQQDRKLPWTFGQGTKLEIKRTVAAPSVFIFPPSDEQLKSGTASVVCLLNNFYPREAKVQWKVDNALQSGNSQESVTEQDSKDSTYSLSSTLTLSKADYEKHKVYACEVTHQGLSSPVTKSFNRGEC |  |  |  |  |  |  |  | 680 µg/mL | 282 µg/mL | 14.7 µg/mL | 118 µg/mL |

— patent publication US20170233485A1 (published 2017)
